Laboratory results reported in publication doi:10.1101/461806 (bioRxiv, 2018).

Legend:
[1] = biological target: T1, Cul3NΔ22 (human Cul3 N-terminal domain, residues 23-388, I342R L346D) (human, UniProt Q13618 23-388, I342R | L346D); experiment: SEC-MALS
SEC-MALS = biological target: the molecule itself; experiment: SEC-MALS
[2] = biological target: T1, Cul3NΔ22 (human Cul3 N-terminal domain, …); experiment: ITC
[3] = biological target: Cul3N (human Cul3 N-terminal domain, residues 1-388, I342R L346D) (human, UniProt Q13618 1-388, I342R | L346D); experiment: ITC
Sequence of Cul3N (human Cul3 N-terminal domain, residues 1-388, I342R L346D) (Q13618 1-388 I342R/L346D): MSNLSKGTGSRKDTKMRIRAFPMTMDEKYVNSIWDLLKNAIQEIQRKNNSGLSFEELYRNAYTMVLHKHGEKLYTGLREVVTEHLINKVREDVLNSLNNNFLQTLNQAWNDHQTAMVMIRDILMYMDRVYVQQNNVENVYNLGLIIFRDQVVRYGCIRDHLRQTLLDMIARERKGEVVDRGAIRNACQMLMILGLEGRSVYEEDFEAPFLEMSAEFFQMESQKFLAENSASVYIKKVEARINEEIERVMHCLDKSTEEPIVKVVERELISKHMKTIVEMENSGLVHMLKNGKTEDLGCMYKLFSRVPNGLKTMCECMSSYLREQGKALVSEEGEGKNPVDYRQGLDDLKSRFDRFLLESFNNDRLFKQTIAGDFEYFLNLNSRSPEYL

T1 sequence (Q13618 23-388 I342R/L346D): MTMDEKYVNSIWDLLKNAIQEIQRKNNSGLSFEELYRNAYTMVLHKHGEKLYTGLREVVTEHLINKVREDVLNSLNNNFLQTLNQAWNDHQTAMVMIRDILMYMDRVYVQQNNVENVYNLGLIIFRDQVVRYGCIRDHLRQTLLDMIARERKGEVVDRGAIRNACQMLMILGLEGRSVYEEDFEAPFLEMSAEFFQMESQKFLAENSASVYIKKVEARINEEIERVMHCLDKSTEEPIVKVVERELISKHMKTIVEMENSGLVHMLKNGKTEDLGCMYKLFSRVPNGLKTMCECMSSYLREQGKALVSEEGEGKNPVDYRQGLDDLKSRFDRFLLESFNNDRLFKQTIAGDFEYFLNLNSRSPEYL

B1: A55BB (A55 BTB-BACK domain, residues 1-250) (domain or fragment)
chain: MNNSSELIAVINGFRNSGRFCDISIVINDERINAHKLILSGASEYFSILFSNNFIDSNEYEVNLSHLDYQSVNDLIDYIYGIPLSLTNDNVKYILSTADFLQIGSAITECENYILKNLCSKNCIDFYIYADKYNNKKIESASFNTILQNILRLINDENFKYLTEESMIKILSDDMLNIKNEDFAPLILIKWLESTQQSCTVELLRCLRISLLSPQVIKSLYSHQLVSSIYECITFLNNIAFLDESFPRYH
For B1, the “stoichiometry N” value [1] was 1 A55BB per Cul3NΔ22 (2:2 complex), the “stoichiometry N” value (SEC-MALS) was 2 and the Kd [2] was 3 nM. For the same binder, the dH [2] was -10.2 kcal/mol, the “stoichiometry N” value [2] was 1 and the Kd [3] was less than 1 nM. The “stoichiometry N” value [3] was 1.

B2: KLHL3-BB (human KLHL3 BTB-BACK, residues 24-276) (domain or fragment)
chain: RTITVNPAHMGKAFKVMNELRSKQLLCDVMIVAEDVEIEAHRVVLAACSPYFCAMFTGDMSESKAKKIEIKDVDGQTLSKLIDYIYTAEIEVTEENVQVLLPAASLLQLMDVRQNCCDFLQSQLHPTNCLGIRAFADVHTCTDLLQQANAYAEQHFPEVMLGEEFLSLSLDQVCSLISSDKLTVSSEEKVFEAVISWINYEKETRLEHMAKLMEHVRLPLLPRDYLVQTVEEEALIKNNNTCKDFLIEAMKYH
B2 showed a dH [2] of -18.9 kcal/mol.
